{"source": "the DeepSol protein solubility set"}
{"assay": "soluble on expression in E. coli; label from the status in PepcDB or PDB records"}
{"sequence": "MSLEWHFSLKEPHVLLFLPFEKYALPYPDPSQSWLSFGLTEIPVPEWTKNLEIITPWRPDFLKFANAQFRCSPEINQTCTHDGALLQLSKYRGFNQNCFLDLLERVKPGGWIIIGGNKTSGADSMMKWVKKIVPITNKFSKNHGLVFWIQVPQQIEKQNTAQLRSPPLTFENKFQTTSGMFSHGRIDPGSAVLASHMCKTISGKTADFGAGWGFLSHAALERSEKLTALDLYEADYNALKAAKQHLKHITTSLPIHFYWHDLVHEPITNLYDTIISNPPFHTQQTTDVSLGQHFIINAAKYLKPGGNLLLVANRHLPYETLLKRLFRTVLIYEKAHGFKVIEAYREGHHHHHH", "soluble on expression in E. coli": "soluble"}
{"sequence": "MSLEYNDVVEAVISALKKAHTELPEDVVTAIKKAYDSEENDIAKRNLEAILKNIEAAKKLGVPMCQDTGIPVFFVEVGRELCLDFDLKEAIVEGVRKATAEIPLRPNAVHPITRENSGDNTGLGIPQINVELVKGDELRMVVMPKGAGSENVSALKMMLPTQVDKIKDFVVETVKNAGGKPCPPIFVGVGVGSTFDGAAKLAKKALLRNVLEMNDFELELLEAVNELGIGAMGLGGKYTALAVLVEFGHCHTASLPVAVNIQCWANRRAEVVLREGGSHHHHHH", "soluble on expression in E. coli": "soluble"}
{"sequence": "MSLGDQLKIIQDGQSFAFSLDTLLLAYWAKEAIKNRSKVVELCSGNAAASLYMAAFNKAHYDDVELQEDIVSKARRSVELNDMQDRITVHQGNVKDAGSFLRKDSYDVVVVNPPYFKAPAGHKLNPDRSKAIARHELEINLEEIIAVSAGLLKMKGKMFMVHRPERLGEIINYGFKHDLAVKTVQPFVSRRGQDANLVIVEAVRSGKGDGLVLRDAIEVHEADGSNTPAIKEILEAKEGHHHHHH", "soluble on expression in E. coli": "soluble"}
{"sequence": "MSLGDSEIYVSLDIGTASVKVIIAEMADDRLNIIGVGNVESSGIKKGIIIDIHKTVESIKKAIEQAERMVGVEISQVIVGVVSSQVHLEACRGIVAVGSENREITDEDVWNVMDAAQVVPLSPEREIINTIPDQFVVDGLTGITDPRGMIGVRLEMEGTLITGSKTILHNTLRCVERAGLEISDIALQPLAEASISLSEDDKEFGTALVNVGAGTTTVSVFEQGRLTYTGVIPVGGDNITKDLSLGLNTSTANADRVKLDHGYAFYDDASPDEVFAIDVIGSDQKQHFTQVEVADIIEARMEEIFQLVVEELTRVGKTHLPGGYVLTGGSMAIPGAIDLAGKTLAAHVRLAIPDYIGVREPSFTTAVGLIKYAYQMVELEGRDVSSEGHHHHHH", "soluble on expression in E. coli": "soluble"}
{"sequence": "MSLGEIWYGGTIYTMREENEKVDAIYVENGMIVDVGSKKELENRYAAVTLYDLEDKTMIPGLVDSHMHLIGHGERLLRLDLSNCTSYSEVLTLVRKRVEEAPKGSWIIGEGWNENNFTDTKDVHARDLDEISKEHPILLKRVCRHVTWVNSYILQEANITEKAEDPKGGKIGRDSSNMLTGLLYEQGQELIKHVQPEIDEAYLQSALQTAIKDCWQYGLVGGHTEDLNYYGGFRKTHNAFSHVIKEMPFKAHLLVHHEVAQERKEYENEHYIEFGAMKIFSDGSFGGRTALLSEPYEDAKETNGVAIFSREELAELVKKARDLHMPVAIHTIGDLSLEYVIDALELYPPAEGLRDRIIHCQLAREELIERMKNLQAIIDIQPVFVSSDFPSVIEKLGEHRLRYAYAWKTLLEAGLHCNGGSDAPIEQVNPFLGIYSAVTRRSFIDGVCYMPEERLTAYEAVSLFTTGSAYAIGKEEKRGQITKGYEADFTILDRNIFEIEAEEIKEVQAEMTVIDGKVVYRKDAEGHHHHHH", "soluble on expression in E. coli": "soluble"}
{"sequence": "MSLGITDSGLSEKQVEKLVRASRPNNPSPDIWARAIKESLEELGQPVDKEHVSAVCAVISQVSAFSISPKNSRMASILRKKIEAAESNEVLRLLIETRLDQTASNGRTFRENIDSIQSELDFEKWYDEFTSASVTKPILLVLKKDASDLITTAGSMQVSVKFAEEYPKKPRNAGGGSVRDMLYTCKGGVFYGTAYLLDYKHNYDDWKYVFADFNAGHYTSRNAGFQKMLGRLTHRMVDTDGDLLSYENGNATPSVTYVTFINFLKDKGIGFDEKKVMKDFQQEKSYDFEETWSYKTLSELYKKKYGHPIYAVLPDIPLNSPKFVSKNLSTKWFAERVKSRYNHCMRTSIEGHHHHHH", "soluble on expression in E. coli": "soluble"}
{"sequence": "MSLGKYFGTDGVRGEANVELTPELAFKLGRFGGYVLSQHEPDRPRVFVARDTRISGELLESALVAGLLSVGIEVYKLGVLATPGVSYLVRTEQASAGVMISASHNPALDNGIKFFGGDGFKLADEQEAEIEALLDAKEDDLPRPSAQGLGMVVDYPEGLRKYEKFLVSTGSDLEGMKIAIDAANGAASYSARQVFLDLNADITVIGEEPDGLNINDGVGSTHPEQLQNLVKGSDFVIGLAFDGDSDRLIAVDENGEIVDGDKIMYIIGKYLSEKGRLSKNTIVTTVMSNLGFHKALDRENINKKITAVGDRYVVEEMRRSGYNLGGEQSGHVIIMDYNTTGDGQLTAIQLTKVMKETGKTLSELANEVTIYPQKLVNIYVKNDMKNKAMEVPMIAQIIEKMEAEMAGNGRILVRPSGTEPLLRVMAEAPSTEEVNYYVDTIAKVVKTEIGIEGHHHHHH", "soluble on expression in E. coli": "soluble"}
{"sequence": "MSLGLHACIDPIAVAHNLEVLRQRLGVGVDGPRIWATVKADAYGHGLHNVLPGLRAADGIAVRHLHEAHQCRRVGWSGPIMVYAGLTHEREAALLTLQQLHLVITDMTQLEWLPGKPLYSCAPWIWLRYIGATRLGGLDASEYRRAYARCRELQQHGALRGVGHLNHYANAASVGDLEREHADFEACIRGLPGPVSTCNSAAACVLPTMAARTDWVRPGLALYGVSPIPGRAGRDLGLRPAMTLRSTLCATQNLPAGASVGYGCTFVADQPMALGLVRCGYGDGYPHNPRASFPVQVDGVLTRTVGRISMDLMAVDLRPIPAAARGAPVVLWGSPQLPVEHIAHAAGTIAAELLTGLTARVPLMRADHAALLREGHHHHHH", "soluble on expression in E. coli": "soluble"}
{"sequence": "MSLGLHITDQQVHRYMSQRRHHTQAVAAAKAGISERSARRIDKNPQLPSQKKRERHWRTRPDPLEQIWPRVEELLKIAGILSVTIFETVQDEFGEAAVPDGVRRTLERRIARWRALNGGEKEIFFPQHHEIGRQGLLDFTVADDLHVTIAGQRFDHRLFHFRLASSGWEDSAVVLGGESFTALSEHLQDALWKLGGVPAELRSDSLSAAYKNLDADAQRDFTRNYEALCRHYGMTPTRNNKGVAHENGSIEAPNGHLKRRMDQALRRRSSRDFPSIEDYRRFVDQEVAKQNRRRARLMDDERRVLKSLPPKRTTDFTLVSADVTRNSTISVDRVTYSVPSRLIGYRLHAHLYDDRVEFFLGPDQVMTADRVRVKHAERGHNIDFRHFIGNLKRKPQALRYLVYRNALFPTHAYTRAWQALDAALDARQACRDMVALLDIAANGNCVDALALRIEAALDRGKLPNVAKLKSEFLPTVRSRVDVTIPPPDFAGYNHLLANAQEGHHHHHH", "soluble on expression in E. coli": "not soluble"}
{"sequence": "MSLGLINVLIADDQTLMREGLKTIIDLEDDMNVTGLAKNGKEVLDQIPCLLPHVILMDIQMPIMNGIECLKVVKRIYPHINVLMLTTFEDDDYIIESLVGGANGFLLKDLNYDQLIYSIRQSVDGQMLIPNSIAVKLAKQLSKYNELTEVDLQIEKLKKEGLHFSERERQIASLLAQGLTNKKIAEKLYITEGTVKNYISEIYSKIGIRDRMQASTYLRELGINDEGHHHHHH", "soluble on expression in E. coli": "soluble"}
{"sequence": "MSLGLLNCLTGAALPLMESDVTSYVSGYALGLTASLTYGNLEAQPFQGLFVYPIDEYSTVVGFEAVIADRVVTIQLRDKAKLDRSHLDIQPATVTGNFPEEESPIAPGKVTLDEDLERVLFVVNLGTIAPMENVTVFISTSSELPTLPSGAVRVLLPAICAPTVPPSCTHRFGSSSPQPQGKDPHCFGTQTKDSYNRLCLATLLDTKVTNPMEYEFKFQLEIRGPCLLAGVESPTHEIRADAAPSAHSAKSIIITLAKKHTFDRPVEILLHPSEPHMPHVLVEKGDMTLGEYDQHLKGKADFIRGTKKDNSAERKTEVIRKRLHKDIPHHSVIMLNFCPDLQSVQPNPRKAHGEFIFLIDRSNSMSKTNIQCIKEAMLVALKSLMPACFFNIIGFGSTFKAVFASSRIYNEENLTMACDCIQRMQADMGGTNMLSPLKWVLRQPLRRGHPRLLFLITDGSVNNTGKVLELVRNHASSTRCYSFGIGPTVCYRLVKGLASVSKGSAEFLMEGERLQPKMVKSLKKAMAPVLSDVTVEWVFPETTEALISPVSTSSLFPGERLMGYGIVCDASLYISNSRSEGHHHHHH", "soluble on expression in E. coli": "not soluble"}
{"sequence": "MSLGLSFFSKHLPIQEGQPWALKTPADIISTVEFNHTGELLATGDKGGRVVIFQREPESKNAPHSQGEYDVYSTFQSHEPEFDYLKSLEIEEKINKIKWLPQQNAAHSLLSTNDKTIKLWKITERDKRPEGYNLKDEEGKLKDLSTVTSLQVPVLKPMDLMVEVSPRRIFANGHTYHINSISVNSDCETYMSADDLRINLWHLAITDRSFNIVDIKPANMEDLTEVITASEFHPHHCNLFVYSSSKGSLRLCDMRAAALCDKHSKLFEEPEDPSNRSFFSEIISSVSDVKFSHSGRYMLTRDYLTVKVWDLNMEARPIETYQVHDYLRSKLCSLYENDCIFDKFECAWNGSDSVIMTGAYNNFFRMFDRNTKRDVTLEASRESSKPRAVLKPRRVCVGGKRRRDDISVDSLDFTKKILHTAWHPAENIIAIAATNNLYIFQDKVNSDMHEGHHHHHH", "soluble on expression in E. coli": "not soluble"}
{"sequence": "MSLGNNLKKKNGADSLYYTTRTFATTKEVIQANKFVNSEKLNEIAKKTDCTYLKSPAGIFTQATLPINKIYEELSHDTINAVKLTFNSYNQPDNGKFSMKAPTYVLLLREKERQSFFEENKLTDNITSYLAVHNAIISNKPTTNQYVFTNLTRLINACVNEKQEAKKKAGDSWNEAAWEAANPDWNKVVLIPVLVQYDSSSNKNMISIQHDLQPGYVKLEGGPDGTKLKLEVTYTNFNGKEGHHHHHH", "soluble on expression in E. coli": "soluble"}
{"sequence": "MSLGPPSIARTVTPNASIPKTPEDISILPVNDEPGYLQDSKTEQNYPELADAVKSQTSQTCSEEHKYVIMIDAGSTGSRVHIYKFDVCTSPPTLLDEKFDMLEPGLSSFDTDSVGAANSLDPLLKVAMNYVPIKARSCTPVAVKATAGLRLLGDAKSSKILSAVRDHLEKDYPFPVVEGDGVSIMGGDEEGVFAWITTNYLLGNIGANGPKLPTAAVFDLGGGSTQIVFEPTFPINEKMVDGEHKFDLKFGDENYTLYQFSHLGYGLKEGRNKVNSVLVENALKDGKILKGDNTKTHQLSSPCLPPKVNATNEKVTLESKETYTIDFIGPDEPSGAQCRFLTDEILNKDAQCQSPPCSFNGVHQPSLVRTFKESNDIYIFSYFYDRTRPLGMPLSFTLNELNDLARIVCKGEETWNSVFSGIAGSLDELESDSHFCLDLSFQVSLLHTGYDIPLQRELRTGKKIANKEIGWCLGASLPLLKADNWKCKIQSAEGHHHHHH", "soluble on expression in E. coli": "soluble"}
{"sequence": "MSLGPTSKAISRNVRSVKRPRRAPRPVVSTQAMNKLSNVTLSAEQEKLRERVLSFMRSNLSQYKSDWKHPAMFVIQGDAGTGKSVILNSLFNEIQKLSQFSPSSEDILHGTHNYLVVNHPEMLKLYIRISDSFKYISKSSLERPTSLINNLQKRKVMADVVIVDEAHLLATSKDAFKRFYGENHLKDLMSLCKVLVLVYDDKQALRMGSYWDEGSNNGATLKDFYNEIPPKSRDWYTLKQQFRVAAPQNVLNWIDQISVAGKIPPIESVLSKGNADCADDKIKNFDFKIWDDCGAMYEAIKEKDRQYGQCRMLSTYDFPYRLDGKDYYVECGDNFKVRWDRYTPREVTPWSERCDTIDEVGSVYTIQGFDLNYAGVILGRSIGYDAANDCIKLRPELYDDRAGFTKKKNIHNAEDVKQKIIMNSINVLLTRGVRGLYVYAYDPELRERLLRPSKEGHHHHHH", "soluble on expression in E. coli": "soluble"}
